From patent US20220073613A1 (XILIO DEVELOPMENT, published 2022)
Positions count from the first letter of the chain named. Names and notes keep the numbering of the source.

B1: Antibody 2-16 (antibody, human IgG1, kappa)
light: ACPFPALELCSSGGSGPDSGGFMLTSGGEIVLTQSPDFQSVTPKEKVTITCSANSALSYMYWYQQKPDQSPKLWVHGTSNLASGVPSRFSGSGSGTDFTLTINSLEAEDAATYYCHHWSNTQWTFGGGTKVEIKRTVAAPSVFIFPPSDEQLKSGTASVVCLLNNFYPREAKVQWKVDNALQSGNSQESVTEQDSKDSTYSLSSTLTLSKADYEKHKVYACEVTHQGLSSPVTKSFNRGEC
heavy: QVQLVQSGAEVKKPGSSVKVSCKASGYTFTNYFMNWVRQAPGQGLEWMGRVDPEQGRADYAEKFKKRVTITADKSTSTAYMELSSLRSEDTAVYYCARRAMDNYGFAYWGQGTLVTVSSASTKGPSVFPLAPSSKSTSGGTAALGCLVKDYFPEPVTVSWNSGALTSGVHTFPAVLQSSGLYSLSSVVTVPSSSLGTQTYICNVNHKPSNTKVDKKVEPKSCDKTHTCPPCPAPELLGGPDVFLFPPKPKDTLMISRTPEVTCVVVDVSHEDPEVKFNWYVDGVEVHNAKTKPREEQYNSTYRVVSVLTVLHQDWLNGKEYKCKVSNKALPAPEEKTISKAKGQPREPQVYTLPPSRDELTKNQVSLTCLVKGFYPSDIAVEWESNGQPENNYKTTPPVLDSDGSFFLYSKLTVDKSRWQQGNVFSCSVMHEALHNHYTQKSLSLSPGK
B2: parental humanized anti-CTLA4 antibody 1 (antibody, human IgG1, kappa)
light: DIVMTQTPLSLSVTPGQPASISCRSSQSLLNSDGNTYLYWYLQKPGQSPQLLIYLVSKLGSGVPNRFSGSGSGTDFTLKISRVEAEDVGVYYCVQGTHDPWTFGGGTKVEIKRTVAAPSVFIFPPSDEQLKSGTASVVCLLNNFYPREAKVQWKVDNALQSGNSQESVTEQDSKDSTYSLSSTLTLSKADYEKHKVYACEVTHQGLSSPVTKSFNRGEC
heavy: not shown
notes: Humanized IgG1
B3: Antibody 2-7 (antibody, human IgG1, kappa)
light: ACPFPALELCGGSGGSVPLSLYSGGEIVLTQSPDFQSVTPKEKVTITCSANSALSYMYWYQQKPDQSPKLWVHGTSNLASGVPSRFSGSGSGTDFTLTINSLEAEDAATYYCHHWSNTQWTFGGGTKVEIKRTVAAPSVFIFPPSDEQLKSGTASVVCLLNNFYPREAKVQWKVDNALQSGNSQESVTEQDSKDSTYSLSSTLTLSKADYEKHKVYACEVTHQGLSSPVTKSFNRGEC
heavy: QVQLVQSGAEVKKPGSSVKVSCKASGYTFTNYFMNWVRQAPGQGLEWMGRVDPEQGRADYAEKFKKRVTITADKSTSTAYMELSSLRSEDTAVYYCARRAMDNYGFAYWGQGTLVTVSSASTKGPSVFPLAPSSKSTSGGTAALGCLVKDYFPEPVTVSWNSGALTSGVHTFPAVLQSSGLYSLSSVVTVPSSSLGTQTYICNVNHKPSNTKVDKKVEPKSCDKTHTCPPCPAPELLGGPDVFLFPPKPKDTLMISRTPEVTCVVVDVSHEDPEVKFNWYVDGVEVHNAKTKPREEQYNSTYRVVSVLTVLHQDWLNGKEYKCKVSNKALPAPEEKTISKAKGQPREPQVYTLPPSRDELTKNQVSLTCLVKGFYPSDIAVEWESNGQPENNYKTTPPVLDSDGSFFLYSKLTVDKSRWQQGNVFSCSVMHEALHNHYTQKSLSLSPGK
B4: Antibody 2-9 (antibody, human IgG1, kappa)
light: B3 light with G14S, G15P, S16P, V17H, P18E, L19Q, S20L, L21T, Y22V
heavy: not shown
B5: Antibody 2-10 (antibody, human IgG1, kappa)
light: ACPFPALELCGGGSSGGSGGSGGSGSGGEIVLTQSPDFQSVTPKEKVTITCSANSALSYMYWYQQKPDQSPKLWVHGTSNLASGVPSRFSGSGSGTDFTLTINSLEAEDAATYYCHHWSNTQWTFGGGTKVEIKRTVAAPSVFIFPPSDEQLKSGTASVVCLLNNFYPREAKVQWKVDNALQSGNSQESVTEQDSKDSTYSLSSTLTLSKADYEKHKVYACEVTHQGLSSPVTKSFNRGEC
heavy: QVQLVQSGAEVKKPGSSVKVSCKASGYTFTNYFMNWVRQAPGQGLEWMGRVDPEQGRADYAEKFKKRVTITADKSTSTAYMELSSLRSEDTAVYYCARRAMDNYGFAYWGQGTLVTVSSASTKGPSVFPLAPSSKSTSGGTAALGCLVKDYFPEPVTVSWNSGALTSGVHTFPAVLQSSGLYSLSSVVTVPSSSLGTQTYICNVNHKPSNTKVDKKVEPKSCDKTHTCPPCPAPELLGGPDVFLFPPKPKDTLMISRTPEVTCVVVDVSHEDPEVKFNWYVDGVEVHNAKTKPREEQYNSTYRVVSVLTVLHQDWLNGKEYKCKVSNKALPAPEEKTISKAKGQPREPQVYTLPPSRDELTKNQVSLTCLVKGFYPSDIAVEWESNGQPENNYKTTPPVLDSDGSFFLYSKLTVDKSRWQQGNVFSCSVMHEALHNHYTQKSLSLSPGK
notes: also called non-cleavable masked Antibody 2-10
B6: Antibody 2-8 (antibody, human IgG1, kappa)
light: ACPFPALELCGGPGSSPMPYDLYHPSGGEIVLTQSPDFQSVTPKEKVTITCSANSALSYMYWYQQKPDQSPKLWVHGTSNLASGVPSRFSGSGSGTDFTLTINSLEAEDAATYYCHHWSNTQWTFGGGTKVEIKRTVAAPSVFIFPPSDEQLKSGTASVVCLLNNFYPREAKVQWKVDNALQSGNSQESVTEQDSKDSTYSLSSTLTLSKADYEKHKVYACEVTHQGLSSPVTKSFNRGEC
heavy: not shown
B7: Antibody 2-11 (antibody, human IgG1, kappa)
light: ACPFPALELCSSPSPSGGGGIGQLTASGGEIVLTQSPDFQSVTPKEKVTITCSANSALSYMYWYQQKPDQSPKLWVHGTSNLASGVPSRFSGSGSGTDFTLTINSLEAEDAATYYCHHWSNTQWTFGGGTKVEIKRTVAAPSVFIFPPSDEQLKSGTASVVCLLNNFYPREAKVQWKVDNALQSGNSQESVTEQDSKDSTYSLSSTLTLSKADYEKHKVYACEVTHQGLSSPVTKSFNRGEC
heavy: not shown
B8: Antibody 2-12 (antibody, human IgG1, kappa)
light: ACPFPALELCGSPGSPKPILFFRLSGGEIVLTQSPDFQSVTPKEKVTITCSANSALSYMYWYQQKPDQSPKLWVHGTSNLASGVPSRFSGSGSGTDFTLTINSLEAEDAATYYCHHWSNTQWTFGGGTKVEIKRTVAAPSVFIFPPSDEQLKSGTASVVCLLNNFYPREAKVQWKVDNALQSGNSQESVTEQDSKDSTYSLSSTLTLSKADYEKHKVYACEVTHQGLSSPVTKSFNRGEC
heavy: not shown
B9: Antibody 2-13 (antibody, human IgG1, kappa)
light: ACPFPALELCGGSSPPRAAAVKSPSGGEIVLTQSPDFQSVTPKEKVTITCSANSALSYMYWYQQKPDQSPKLWVHGTSNLASGVPSRFSGSGSGTDFTLTINSLEAEDAATYYCHHWSNTQWTFGGGTKVEIKRTVAAPSVFIFPPSDEQLKSGTASVVCLLNNFYPREAKVQWKVDNALQSGNSQESVTEQDSKDSTYSLSSTLTLSKADYEKHKVYACEVTHQGLSSPVTKSFNRGEC
heavy: not shown
B10: Antibody 2-1 (antibody, V domains shown)
VL: EIVLTQSPDFQSVTPKEKVTITCSANSALSYMYWYQQKPDQSPKLWVHGTSNLASGVPSRFSGSGSGTDFTLTINSLEAEDAATYYCHHWSNTQWTFGGGTKVEIKR
VH: QVQLVQSGAEVKKPGSSVKVSCKASGYTFTNYFMNWVRQAPGQGLEWMGRVDPEQGRADYAEKFKKRVTITADKSTSTAYMELSSLRSEDTAVYYCARRAMDNYGFAYWGQGTLVTVSSA
notes: Wild-type Fc region; Variable domains are stated for Antibody 2-6, another version of Antibody 2 that differs in the Fc region only; also called version of Antibody 2 having a wild-type Fc region
B11: Antibody 2-4 (antibody, V domains shown)
VL: B10 VL
VH: B10 VH
notes: Fc with S239D, I332E, A330L; also called version of Antibody 2 having S239D, I332E, and A330L mutations in the Fc region
B12: Antibody 2-3 (antibody, V domains shown)
VL: B10 VL
VH: B10 VH
notes: see m21; also called version of Antibody 2 having a S239D mutation, an I332E mutation in the Fc region, and two hinge region mutations
B13: Antibody 2-2 (antibody, V domains shown)
VL: B10 VL
VH: B10 VH
notes: Fc region with S239D and I332E; also called version of Antibody 2 having a S239D mutation and an I332E mutation in the Fc region; unmasked Antibody 2-2
B14: Antibody 2-5 (antibody, V domains shown)
VL: B10 VL
VH: B10 VH
notes: see m21; also called version of Antibody 2 having S239D, I332E, A330L mutations in the Fc region, and two hinge region mutations
B15: Antibody 1-1 (antibody, V domains shown)
VL: DIVMTQTPLSLSVTPGQPASISCRSSQSLLNSDGNTYLYWYLQKPGQSPQLLIYLVSKLGSGVPNRFSGSGSGTDFTLKISRVEAEDVGVYYCVQGTHDPWTFGGGTKVEIKR
VH: QVQLQESGPGLVKPSETLSLTCSVTYHTITSGYDWTWIRKPPGKGMEWIGYISYSGNTNYNPSLKSRVTISRDTSKNQFFLKLSSVTAADTAVYYCASMMVPHYYVMDAWGQGTLVTVSSA
notes: Humanized; wild type Fc region; Variable domains are stated for Antibody 1; full chains are not tied to the label Antibody 1-1; also called version of Antibody 1 having a wild type Fc region
B16: Antibody 1-2 (antibody, human IgG1, kappa)
light: B2 light
heavy: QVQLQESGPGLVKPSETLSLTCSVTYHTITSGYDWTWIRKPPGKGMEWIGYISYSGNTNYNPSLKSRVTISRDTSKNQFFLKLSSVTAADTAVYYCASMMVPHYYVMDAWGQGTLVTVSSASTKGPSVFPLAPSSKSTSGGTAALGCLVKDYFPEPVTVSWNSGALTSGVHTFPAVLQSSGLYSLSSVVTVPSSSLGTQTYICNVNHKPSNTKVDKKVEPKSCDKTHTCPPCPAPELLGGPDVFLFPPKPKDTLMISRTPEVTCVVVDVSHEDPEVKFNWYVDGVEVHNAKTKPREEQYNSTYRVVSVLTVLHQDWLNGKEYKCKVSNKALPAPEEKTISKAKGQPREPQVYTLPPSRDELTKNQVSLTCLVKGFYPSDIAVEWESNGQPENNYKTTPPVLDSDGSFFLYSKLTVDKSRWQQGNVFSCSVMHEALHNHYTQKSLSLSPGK
notes: also called version of Antibody 1 having a S239D mutation and an I332E mutation in the Fc region
B17: Antibody 2-8 (Activated) (antibody, not shown: small tags and cut ends)
light: EIVLTQSPDFQSVTPKEKVTITCSANSALSYMYWYQQKPDQSPKLWVHGTSNLASGVPSRFSGSGSGTDFTLTINSLEAEDAATYYCHHWSNTQWTFGGGTKVEIKRTVAAPSVFIFPPSDEQLKSGTASVVCLLNNFYPREAKVQWKVDNALQSGNSQESVTEQDSKDSTYSLSSTLTLSKADYEKHKVYACEVTHQGLSSPVTKSFNRGEC
heavy: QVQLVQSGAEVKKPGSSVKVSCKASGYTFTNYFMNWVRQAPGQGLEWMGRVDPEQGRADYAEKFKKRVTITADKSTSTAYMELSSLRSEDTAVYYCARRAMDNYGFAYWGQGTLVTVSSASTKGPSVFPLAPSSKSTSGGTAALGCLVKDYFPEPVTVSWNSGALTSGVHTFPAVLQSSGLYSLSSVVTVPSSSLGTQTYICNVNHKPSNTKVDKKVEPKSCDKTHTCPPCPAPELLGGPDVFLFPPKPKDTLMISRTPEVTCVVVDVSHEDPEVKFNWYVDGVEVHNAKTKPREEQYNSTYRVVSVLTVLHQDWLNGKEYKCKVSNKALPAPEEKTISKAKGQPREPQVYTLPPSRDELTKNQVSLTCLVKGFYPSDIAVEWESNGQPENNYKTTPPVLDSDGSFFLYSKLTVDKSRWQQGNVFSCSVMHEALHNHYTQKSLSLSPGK
B18: Antibody 2-9 (Activated) (antibody)
light: B17 light
heavy: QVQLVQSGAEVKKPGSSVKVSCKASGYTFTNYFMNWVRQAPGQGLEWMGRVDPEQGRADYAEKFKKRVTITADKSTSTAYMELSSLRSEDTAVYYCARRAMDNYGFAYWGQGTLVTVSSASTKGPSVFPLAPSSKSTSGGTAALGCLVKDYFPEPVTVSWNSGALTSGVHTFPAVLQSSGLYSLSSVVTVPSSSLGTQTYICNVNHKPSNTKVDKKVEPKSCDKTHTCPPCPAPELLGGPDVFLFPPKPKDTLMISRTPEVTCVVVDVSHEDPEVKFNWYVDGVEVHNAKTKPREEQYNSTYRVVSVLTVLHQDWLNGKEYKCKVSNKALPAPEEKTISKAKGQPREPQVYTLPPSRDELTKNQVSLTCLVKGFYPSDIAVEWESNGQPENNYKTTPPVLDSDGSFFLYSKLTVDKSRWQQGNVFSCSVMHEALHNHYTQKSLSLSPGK
notes: not shown: remnant of the cleaved linker (part of HEQLTV and spacer SGG)
B19: Antibody 2-13 (Activated) (antibody, not shown: small tags and cut ends)
light: B17 light
heavy: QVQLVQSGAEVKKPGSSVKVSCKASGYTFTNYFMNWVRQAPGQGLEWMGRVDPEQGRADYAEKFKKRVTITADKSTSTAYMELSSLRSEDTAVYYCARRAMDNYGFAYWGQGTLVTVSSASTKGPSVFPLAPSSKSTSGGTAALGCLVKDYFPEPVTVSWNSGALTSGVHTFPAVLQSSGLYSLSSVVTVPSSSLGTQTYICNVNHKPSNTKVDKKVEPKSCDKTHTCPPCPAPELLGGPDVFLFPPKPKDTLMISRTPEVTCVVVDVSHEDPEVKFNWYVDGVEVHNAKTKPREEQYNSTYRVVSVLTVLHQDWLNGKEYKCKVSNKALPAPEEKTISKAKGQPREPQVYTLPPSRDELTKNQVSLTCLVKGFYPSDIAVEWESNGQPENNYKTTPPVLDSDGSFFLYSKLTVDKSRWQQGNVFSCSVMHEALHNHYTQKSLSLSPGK
B20: Antibody 2-12 (Activated) (antibody, not shown: small tags and cut ends)
light: B17 light
heavy: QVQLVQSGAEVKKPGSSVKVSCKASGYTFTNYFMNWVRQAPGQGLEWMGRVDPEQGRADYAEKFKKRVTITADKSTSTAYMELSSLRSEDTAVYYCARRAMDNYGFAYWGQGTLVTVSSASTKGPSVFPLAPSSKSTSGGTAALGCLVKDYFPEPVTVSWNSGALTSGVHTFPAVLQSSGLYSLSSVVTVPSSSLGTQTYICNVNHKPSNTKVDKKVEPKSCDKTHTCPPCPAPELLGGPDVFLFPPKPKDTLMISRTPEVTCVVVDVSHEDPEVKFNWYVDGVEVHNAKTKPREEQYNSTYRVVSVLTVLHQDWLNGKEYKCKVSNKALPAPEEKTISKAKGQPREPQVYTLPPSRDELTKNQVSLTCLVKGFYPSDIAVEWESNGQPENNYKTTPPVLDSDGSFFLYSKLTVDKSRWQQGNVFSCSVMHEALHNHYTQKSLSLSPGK
B21: Antibody 2-11 (Activated) (antibody, not shown: small tags and cut ends)
light: B17 light
heavy: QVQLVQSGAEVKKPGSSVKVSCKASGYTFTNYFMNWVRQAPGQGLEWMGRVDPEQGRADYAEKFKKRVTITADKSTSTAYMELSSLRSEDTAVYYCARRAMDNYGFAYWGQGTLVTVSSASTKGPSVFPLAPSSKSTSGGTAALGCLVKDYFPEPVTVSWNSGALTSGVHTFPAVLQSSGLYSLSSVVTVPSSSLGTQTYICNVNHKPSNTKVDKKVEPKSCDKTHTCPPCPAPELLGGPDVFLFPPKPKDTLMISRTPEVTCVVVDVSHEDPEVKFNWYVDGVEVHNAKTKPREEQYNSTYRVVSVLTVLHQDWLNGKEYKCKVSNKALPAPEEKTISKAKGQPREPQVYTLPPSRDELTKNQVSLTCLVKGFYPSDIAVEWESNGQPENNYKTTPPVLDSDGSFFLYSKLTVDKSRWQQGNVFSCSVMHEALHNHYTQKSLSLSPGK

target: T1, human CTLA4-Fc (R&D Systems, #7268-CT) (human, UniProt P16410 36-162); assay: CTLA4 ELISA (luminescence) after culture of the masked antibody in RPMI as control
T1 construct: Bought; not shown: Fc part
T1 sequence (P16410 36-162 limits assumed): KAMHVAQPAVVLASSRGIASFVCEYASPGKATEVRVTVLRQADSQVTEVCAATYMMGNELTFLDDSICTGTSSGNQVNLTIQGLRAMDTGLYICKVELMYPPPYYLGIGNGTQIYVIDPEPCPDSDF

Q: Which “EC50 (read off the curve)” value does the source give for B1 here?
A: ~6 nM

target: T1, human CTLA4-Fc (R&D Systems, #7268-CT); assay: ELISA: plate coated with human CTLA4-Fc (R&D Systems), detection anti-huKappa-HRP, chemiluminescence; signal as fraction of the parental antibody's RLU (Example 5)

Q: Which “EC50 (read off the curve)” value does the source give for B2 here?
A: ~0.7 nM

target: T1, human CTLA4-Fc (R&D Systems, #7268-CT); assay: low density antigen binding ELISA, human CTLA4-Fc coated; no protease

Q: With B3 as the binder, how does the EC50 read?
A: 33.9 nM

Q: Which EC50 does the source give for B4 here?
A: 48.9 nM

Q: With B5 as the binder, how does the EC50 read?
A: 29.4 nM

Q: B6 was tested. Which EC50 did it give?
A: 54.8 nM

Q: Which EC50 does the source give for B7 here?
A: 34.9 nM

Q: For B8, which EC50 is on record?
A: 3.3 nM

Q: With B9 as the binder, how does the EC50 read?
A: 14.2 nM

target: T1, human CTLA4-Fc (R&D Systems, #7268-CT); assay: low density antigen binding ELISA, human CTLA4-Fc coated at 1 µg/mL, anti-human kappa-HRP

Q: How did the EC50 turn out when B10 was run?
A: 0.44 nM

Q: B11 was tested. Which EC50 did it give?
A: 0.4 nM

Q: With B12 as the binder, how does the EC50 read?
A: 0.4 nM

Q: How did the EC50 turn out when B13 was run?
A: 0.39 nM

Q: How did the EC50 turn out when B14 was run?
A: 0.41 nM

Q: For B15, which EC50 is on record?
A: 0.32 nM

Q: Which EC50 does the source give for B16 here?
A: 0.32 nM

target: T1, human CTLA4-Fc (R&D Systems, #7268-CT); assay: CTLA4 ELISA (luminescence) after culture of the non-cleavable masked antibody in RPMI as control

Q: Which “EC50 (read off the curve)” value does the source give for B5 here?
A: ~8 nM

target: T1, human CTLA4-Fc (R&D Systems, #7268-CT); assay: low density antigen binding ELISA, human CTLA4-Fc coated; after protease digestion

Q: How did the EC50 turn out when B17 was run?
A: 0.67 nM

Q: With B18 as the binder, how does the EC50 read?
A: 0.67 nM

Q: Which EC50 does the source give for B19 here?
A: 0.57 nM

Q: With B20 as the binder, how does the EC50 read?
A: 0.62 nM

Q: With B21 as the binder, how does the EC50 read?
A: 0.62 nM

target: T1, human CTLA4-Fc (R&D Systems, #7268-CT); assay: ELISA, human CTLA4-Fc coated; protease -

Q: For B3, which EC50 is on record?
A: 33.9 nM

Q: With B5 as the binder, how does the EC50 read?
A: 29.4 nM
